Measured values reported in PMC3810134, “Substrate and Inhibitor Specificity of the Type II p21-Activated Kinase, PAK6” (PLoS ONE, 2013).
Changes are numbered by the printed parent chain. Names may count otherwise.

B1: full-length WT GFP-PAK6: full-length wild-type PAK6 fused to GFP, transfected in HEK293 cells (protein, UniProt Q9NQU5 1-681, looked up)
chain: MFRKKKKKRPEISAPQNFQHRVHTSFDPKEGKFVGLPPQWQNILDTLRRPKPVVDPSRITRVQLQPMKTVVRGSAMPVDGYISGLLNDIQKLSVISSNTLRGRSPTSRRRAQSLGLLGDEHWATDPDMYLQSPQSERTDPHGLYLSCNGGTPAGHKQMPWPEPQSPRVLPNGLAAKAQSLGPAEFQGASQRCLQLGACLQSSPPGASPPTGTNRHGMKAAKHGSEEARPQSCLVGSATGRPGGEGSPSPKTRESSLKRRLFRSMFLSTAATAPPSSSKPGPPPQSKPNSSFRPPQKDNPPSLVAKAQSLPSDQPVGTFSPLTTSDTSSPQKSLRTAPATGQLPGRSSPAGSPRTWHAQISTSNLYLPQDPTVAKGALAGEDTGVVTHEQFKAALRMVVDQGDPRLLLDSYVKIGEGSTGIVCLAREKHSGRQVAVKMMDLRKQQRRELLFNEVVIMRDYQHFNVVEMYKSYLVGEELWVLMEFLQGGALTDIVSQVRLNEEQIATVCEAVLQALAYLHAQGVIHRDIKSDSILLTLDGRVKLSDFGFCAQISKDVPKRKSLVGTPYWMAPEVISRSLYATEVDIWSLGIMVIEMVDGEPPYFSDSPVQAMKRLRDSPPPKLKNSHKVSPVLRDFLERMLVRDPQERATAQELLDHPFLLQTGLPECLVPLIQLYRKQTSTC
modifications: full-length GFP fusion
notes: full-length wild-type PAK6 fused to GFP, transfected in HEK293 cells
B2: P52L mutant: full-length GFP-PAK6 with melanoma-associated P52L mutation, transfected in HEK293 cells (protein, UniProt Q9NQU5 1-681, looked up, variant P52L)
chain: B1 chain with P52L
modifications: full-length GFP fusion
notes: full-length GFP-PAK6 with melanoma-associated P52L mutation, transfected in HEK293 cells

Test system: PACSIN1 phosphorylation (Ser343) in HEK293 cells
Test: Cell-based assay: phospho-PACSIN1 on co-transfection with PAK6 constructs in HEK293 cells
Details: co-transfection with myc-PACSIN1, 24 h
Description: HEK293 cells were grown at 37°C with 5% CO2 in Dulbecco’s modified Eagle’s medium (DMEM) supplemented with 10% fetal bovine serum and penicillin/streptomycin. Cells were transfected with pCMV6-myc-PACSIN1 (kindly provided by J. Peterson) and pEGFP-C2, pEGFP-PAK6-WT, pEGFP-PAK6-P52L, pEGFP-PAK6-N (N-terminus, residues 1–382) or pEGFP-PAK6-CAT (catalytic domain, residues 383–674) using polyethylenimine (PEI, Polysciences Inc.). Twenty four hours later, cells were trypsinized, quenched with complete medium, washed with PBS and lysed in buffer containing 20 mM Tris (pH 8.0), 200 mM NaCl, 1 mM EDTA, 1% Triton X-100, Complete Protease Inhibitor Cocktail (Roche), and phosphatase inhibitors (1 mM Na3VO4, 10 mM NaF, 10 mM β-glycerol phosphate) for 10 minutes at 4°C. Samples were resolved by SDS-PAGE and were assessed by immunoblotting using the following antibodies: goat anti-GFP (1∶1000; Rockland), mouse anti-myc (9E10, 1∶1000; Santa Cruz Biotechnology), rabbit anti-phospho-PACSIN1 (1∶2000; gift of J. Peterson), mouse anti-vinculin (1∶10,000; Sigma), anti-goat or anti-rabbit IgG AlexaFluor680 (1∶5000, Invitrogen), anti-mouse IgG IRDye800 (1∶5000, Li-Cor). Bands visualized using a Li-Cor Oddysey imager and were quantified using ImageJ. A ratio of phospho-PACSIN1 to total PACSIN1 was calculated by dividing the total phospho-PACSIN1 signal by the myc signal.

Row | Molecule | phosphorylation of PACSIN1 at Ser343 compared to GFP alone or GFP-PAK6 N-terminus (phospho-PACSIN1 immunoblot) | phosphorylation of PACSIN1 compared to wild-type PAK6 (phospho-PACSIN1/total PACSIN1 (myc), n = 4, Student's t-test)
1 | B1 | increased phosphorylation of PACSIN1 at Ser343 | 
2 | B2 |  | significantly increased phosphorylation
